To fix the notation:
B1: bL15Vp peptide (peptide)
peptide: Biotin-LKGLDIDTIQQNY[pT]V
notes: last 15 amino acids of the maize plasma membrane H+-ATPase isoform 2 (MHA2); also called phosphorylated biotinyl-peptide reproducing the last 15 residues of the MHA2 H+-ATPase; source: synthetic peptide (Neosystem, Strasbourg)
B2: GF14εN211G (natural protein, Arabidopsis, UniProt P48347 1-254, looked up)
chain: MENEREKQVYLAKLSEQTERYDEMVEAMKKVAQLDVELTVEERNLVSVGYKNVIGARRASWRILSSIEQKEESKGNDENVKRLKNYRKRVEDELAKVCNDILSVIDKHLIPSSNAVESTVFFYKMKGDYYRYLAEFSSGAERKEAADQSLEAYKAAVAAAENGLAPTHPVRLGLALNFSVFYYEILNSPESACQLAKQAFDDAIAELDSLGEESYKDSTLIMQLLRDNLTLWTSDLNEEGDERTKGADEPQDEN
modifications: 32P-phosphate on the phosphorylation site at the junction between GST and the cloned protein (bead binding assay)
notes: GF14 epsilon, Arabidopsis, At1g22300, Asn211 changed into Gly; also called GF14ε loop 8 mutant; source: E. coli BL21(DE3), GST fusion (pGEX-2TK)

What all share (conditions): both partners purified
The experiment “GF14εN211G” addresses B2. The experiment in a line: pull-down; bL15Vp on streptavidin-agarose magnetic beads; 0.1 nmol 32P-labeled GF14 wild type or loop 8 mutant in buffer HT without Mg2+; FC not told for this experiment.
The target in a further experiment is T1, GF14κ (Arabidopsis, UniProt P48348 1-248, 32P-phosphate on the phosphorylation site at the junction between GST and the cloned protein (overlay and bead binding assays)).
T1 construct: 14-3-3 protein GF14 kappa, Arabidopsis, At5g65430; cDNA by RT-PCR with primers corresponding to the coding region; also called GF14 kappa; GST-GF14κ
T1 sequence (looked up): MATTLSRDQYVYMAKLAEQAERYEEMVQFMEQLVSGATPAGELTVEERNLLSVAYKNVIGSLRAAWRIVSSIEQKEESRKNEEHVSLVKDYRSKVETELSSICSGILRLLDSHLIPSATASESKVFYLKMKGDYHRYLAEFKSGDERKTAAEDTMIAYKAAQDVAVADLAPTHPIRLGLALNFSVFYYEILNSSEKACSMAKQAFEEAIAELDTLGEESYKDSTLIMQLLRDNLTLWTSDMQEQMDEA
The experiment in a line: pull-down; 0.05 nmol bL15Vp on streptavidin-agarose magnetic beads; 0.1 nmol 32P-labeled GF14 in 50 µl buffer HT, 60 min, room temperature; without FC; bound radioactivity counted.

For a further experiment, the target named is T2, GF14χ (Arabidopsis, UniProt P42643 1-267, 32P-phosphate on the phosphorylation site at the junction between GST and the cloned protein (overlay and bead binding assays)).
T2 construct: 14-3-3 protein GF14 chi, Arabidopsis, At4g09000; cDNA by RT-PCR with primers corresponding to the coding region; also called GF14 chi; GST-GF14χ
T2 sequence (looked up): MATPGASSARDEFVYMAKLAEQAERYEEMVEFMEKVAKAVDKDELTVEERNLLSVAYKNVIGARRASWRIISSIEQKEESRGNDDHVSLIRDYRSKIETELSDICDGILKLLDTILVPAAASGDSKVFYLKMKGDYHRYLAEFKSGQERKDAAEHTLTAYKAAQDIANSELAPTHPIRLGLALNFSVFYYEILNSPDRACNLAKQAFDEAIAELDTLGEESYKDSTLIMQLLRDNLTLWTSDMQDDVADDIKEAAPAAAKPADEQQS
Described as above.

Another experiment has as its target T3, GF14λ (Arabidopsis, UniProt P48349 1-248, 32P-phosphate on the phosphorylation site at the junction between GST and the cloned protein (overlay and bead binding assays)).
T3 construct: 14-3-3 protein GF14 lambda, Arabidopsis, At5g10450; cDNA by RT-PCR with primers corresponding to the coding region; also called GF14 lambda; GST-GF14λ
T3 sequence (looked up): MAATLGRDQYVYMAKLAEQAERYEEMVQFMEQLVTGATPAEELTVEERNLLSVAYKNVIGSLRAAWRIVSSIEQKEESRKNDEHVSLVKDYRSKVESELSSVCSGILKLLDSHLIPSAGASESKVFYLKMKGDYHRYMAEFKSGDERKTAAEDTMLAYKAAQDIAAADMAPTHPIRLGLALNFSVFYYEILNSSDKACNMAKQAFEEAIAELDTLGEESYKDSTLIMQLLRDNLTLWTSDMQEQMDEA
The experiment is described as above.

In another experiment the target is T4, GF14ωG213N (Arabidopsis, UniProt Q01525 1-259, G213N, 32P-phosphate on the phosphorylation site at the junction between GST and the cloned protein (bead binding assay)).
T4 construct: GF14 omega, Arabidopsis, At1g78300, Gly213 changed into Asn; also called GF14ω loop 8 mutant; source: E. coli BL21(DE3), GST fusion (pGEX-2TK)
T4 sequence (looked up): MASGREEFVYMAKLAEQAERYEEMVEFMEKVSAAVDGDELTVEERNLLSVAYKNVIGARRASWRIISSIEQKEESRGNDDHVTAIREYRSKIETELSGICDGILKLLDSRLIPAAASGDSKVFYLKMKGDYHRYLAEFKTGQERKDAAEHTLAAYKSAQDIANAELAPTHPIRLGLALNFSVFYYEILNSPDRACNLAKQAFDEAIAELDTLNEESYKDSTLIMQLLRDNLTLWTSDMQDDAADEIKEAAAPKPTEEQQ
The experiment in a line: pull-down; bL15Vp on streptavidin-agarose magnetic beads; 0.1 nmol 32P-labeled GF14 wild type or loop 8 mutant in buffer HT with 5 mM Mg2+; FC not told for this experiment.

The experiment “bL15Vp peptide” addresses B1. Described as above.

Where no end group is shown, it is not given here. [ ]: non-standard residue; d: D form. The star is where a group is joined. Biotin = O=C1N[C@H]2[C@H](CS[C@H]2CCCCC(=O)*)N1; pT = C[C@@H](OP(=O)(O)O)[C@H](N)C(=O)O

This is an account of results in publication PMC3946203, “Specificity of ε and Non-ε Isoforms of Arabidopsis 14-3-3 Proteins Towards the H^+-ATPase and Other Targets” (PLoS ONE, 2014).

Regarding B1, the binding result with GF14εN211G, with GF14κ, with GF14χ, with GF14λ and in the experiment with GF14ωG213N was “binds” throughout.
Regarding B2, in the experiment with bL15Vp peptide, the “fold more protein bound with 5 mM Mg2+ (reference not clear: wild type GF14ε or the mutant without Mg2+)” value is above 5 fold.
